# Test results published in publication PMC4764579, “Structural insights into the mechanism of activation of the TRPV1 channel by a membrane-bound tarantula toxin” (eLife, 2016).
# What was measured:
# rTRPV1 = target: T1, rTRPV1 (Rattus norvegicus, UniProt O35433); experiment: Whole-cell patch clamp recordings of TRPV1 activation by toxins in transiently transfected HEK293 cells; type: cell-based
# T1 construct: preserved in the full-length construct used for our functional studies; expressed in transfected cells; host or cells: HEK293
# From the text: Figure 3. Validation of the proposed structural model of the TRPV1-DkTx complex. Close-up of K1 (A) and K2 (B) in the top-ranking ROSETTA model of DkTx bound to TRPV1. Side chains of TRPV1 residues where mutation disrupts DkTx-induced channel activation (I599, F649, A657 and F659) ([Bohlen et al., 2010]) are highlighted in purple. (C) Representative time courses of TRPV1 activation at +120 mV by either DkTx (left panel), K1K1 (middle panel) or K2K2 (right panel) measured from a train of voltage-ramps in the whole-cell configuration with the TRPV1 expressed in HEK cells. […] Fractional dissociation 1 min after toxin removal was quantified across cells as the current amplitude 1 min after toxin removal divided by the steady-state current amplitude in the presence of the toxin. […] Activation of the full-length TRPV1 channel by the toxin at different concentrations was measured in oocytes at a holding voltage of −60 mV. […]
# Figure 7. […] Currents were measured every 3 s by applying voltage-ramps of 1 s duration from −120 to +140 mV starting at a holding potential of −90 mV. Currents were recorded under constant perfusion with control solution or with the test solutions containing either NMDG^+ instead of Na^+ as permeant ion (gray), or the K2 toxins together with 130 mM NaCl (black and blue), as indicated by the continuous horizontal lines. […]
# [1] = Membrane partitioning of toxins into lipid vesicles measured using Trp fluorescence; type: physicochemical
# From the text: Motivated by the amphipathic character evident in the structure of DkTx, together with the placement of the toxin at the protein-lipid interface when bound to TRPV1, we investigated the interaction of DkTx and each of its two lobes with lipid membranes. For these experiments, we took advantage of the presence of a single conserved and solvent accessible Trp residue in loop 2 of both K1 and K2 (Figure 1C,D; W11 and W53), and used Trp fluorescence to monitor the partitioning of the toxin from the aqueous solution into the membrane environment ([Gupta et al., 2015]; [Ladokhin et al., 2000]; [Milescu et al., 2007]). When aqueous solutions of DkTx were excited at a wavelength of 280 nm, emission spectra with maxima at 353 nm were obtained (Figure 5A, left), as expected for Trp residues residing in such an environment. […] To quantify the extent of partitioning as a function of lipid concentration, we measured the relative fluorescence intensity in a blue-shifted region of the spectra (e.g. 320 nm) as a function of lipid concentration, and fit a partition function to the data to obtain a mole-fraction partition coefficient (Kx) of (2.3 ± 0.7) × 10^6, indicating an energetically favorable interaction of DkTx with lipid membranes (Figure 5A, right). This strong interaction of DkTx with membranes would facilitate binding of the toxin to the channel by increasing the local concentration of the toxin near the channel and by a reduction in the dimensionality of diffusion within the membrane ([Axelrod and Wang, 1994]).
# Figure 5. Interaction of DkTx and toxin constructs with lipid membranes measured using Trp fluorescence. […] (A–E, right panel) Relative fluorescence intensity at 320 nm (F/F0) as a function of available lipid concentrations (60% of total lipid concentration). […] Interaction of K1-K2 chimeras with lipid membranes measured using Trp fluorescence. […] (A–D, right panel) Relative fluorescence intensity at 320 nm (F/F0) as a function of available lipid concentrations (60% of total lipid concentration). […]
# T1 sequence (O35433 whole entry): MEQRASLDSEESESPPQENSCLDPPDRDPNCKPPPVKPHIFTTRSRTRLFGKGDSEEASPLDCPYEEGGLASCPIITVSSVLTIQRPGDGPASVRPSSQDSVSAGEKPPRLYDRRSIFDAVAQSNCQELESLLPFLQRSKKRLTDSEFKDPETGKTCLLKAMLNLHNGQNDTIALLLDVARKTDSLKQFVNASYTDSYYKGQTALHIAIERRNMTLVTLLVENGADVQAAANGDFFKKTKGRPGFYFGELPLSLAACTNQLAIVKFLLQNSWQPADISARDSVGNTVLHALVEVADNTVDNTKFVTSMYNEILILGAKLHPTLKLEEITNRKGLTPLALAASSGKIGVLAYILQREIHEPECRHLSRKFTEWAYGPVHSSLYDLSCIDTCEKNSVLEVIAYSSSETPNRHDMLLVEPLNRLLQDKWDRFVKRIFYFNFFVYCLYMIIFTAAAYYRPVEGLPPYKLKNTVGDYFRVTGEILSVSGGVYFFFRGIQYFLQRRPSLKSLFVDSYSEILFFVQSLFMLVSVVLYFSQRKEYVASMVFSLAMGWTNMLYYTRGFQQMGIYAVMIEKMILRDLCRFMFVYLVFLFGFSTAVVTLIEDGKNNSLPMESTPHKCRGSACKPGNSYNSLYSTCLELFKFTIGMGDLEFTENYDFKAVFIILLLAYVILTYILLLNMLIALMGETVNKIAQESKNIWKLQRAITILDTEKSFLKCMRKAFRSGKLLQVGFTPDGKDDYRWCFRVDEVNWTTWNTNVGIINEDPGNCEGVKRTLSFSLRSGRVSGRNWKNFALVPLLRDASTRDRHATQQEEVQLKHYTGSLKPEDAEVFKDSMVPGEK
molecule,measurement,setting,value
"double-knot toxin (protein, produced recombinantly) DCAKEGEVCSWGKKCCDLDNFYCPMEFIPHCKKYKPYVPVTTNCAKEGEVCGWGSKCCHGLDCPLAFIPYCEKYR",dissociation from TRPV1 after toxin removal (in words),rTRPV1; HEK cells,slow dissociation
same,Fractional dissociation 1 min after toxin removal (current amplitude 1 min after toxin removal divided by steady-state current amplitude in presence of toxin),"rTRPV1; TRPV1 in HEK cells, +120 mV from voltage ramps, 1 µM toxin, mean ± sem, n = 8 (DkTx), 5 (K1K1), 6 (K2K2), SEM",0.8 ± 0.05
same,F/F0^max (relative fluorescence intensity at 320 nm when partitioning is saturated),"[1]; Trp fluorescence, LUVs 1:1 POPC:POPG, 10 mM HEPES, 1 mM EDTA, pH 7.0, fit of partition function, ± SEM, n = 3 or 4, SEM",2.65 ± 0.08
same,mole-fraction partition coefficient (Kx),"[1]; Trp fluorescence, excitation 280 nm, F/F0 at 320 nm, LUVs 1:1 POPC:POPG extruded through 100 nm, toxin 2 or 5 µM in 10 mM HEPES, 1 mM EDTA, pH 7.0, available lipid 60% of total, fit of partition function, ± SEM, n = 3 or 4, SEM",(2.3 ± 0.7) × 10^6
same,measured free energy of membrane partitioning (ΔG° = −RT lnKx),"[1]; from measured Kx, LUVs 1:1 POPC:POPG",-8.5 kcal/mol
